Results from US20200121803A1 (published 2020).

Target: T1, human CD98 on human cancer cell lines (EBC-1, H2170, Molt-4) (human)
T1 chain: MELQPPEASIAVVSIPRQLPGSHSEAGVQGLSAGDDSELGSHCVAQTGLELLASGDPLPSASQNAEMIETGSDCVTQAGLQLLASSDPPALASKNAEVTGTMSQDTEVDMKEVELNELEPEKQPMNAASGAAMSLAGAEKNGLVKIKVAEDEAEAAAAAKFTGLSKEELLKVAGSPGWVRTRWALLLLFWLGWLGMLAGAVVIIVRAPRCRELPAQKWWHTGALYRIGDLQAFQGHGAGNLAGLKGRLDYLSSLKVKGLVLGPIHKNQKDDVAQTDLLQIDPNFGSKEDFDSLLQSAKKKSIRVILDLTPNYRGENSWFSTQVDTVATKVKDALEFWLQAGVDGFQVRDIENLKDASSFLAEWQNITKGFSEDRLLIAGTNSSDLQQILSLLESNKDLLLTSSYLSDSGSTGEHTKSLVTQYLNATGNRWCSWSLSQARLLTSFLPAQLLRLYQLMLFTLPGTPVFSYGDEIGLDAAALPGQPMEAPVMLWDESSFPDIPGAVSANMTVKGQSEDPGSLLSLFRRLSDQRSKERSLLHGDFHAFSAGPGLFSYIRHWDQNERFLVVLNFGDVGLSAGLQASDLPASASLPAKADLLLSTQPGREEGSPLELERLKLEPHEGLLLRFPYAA
Test: cell-based or functional assay

B1: ChAb3-CZ-Broad DAR (anti-CD98 chimeric chAb3 conjugated to Bcl-xL inhibitor synthon CZ, unfractionated, DAR 4.1) (antibody, human IgG1, V domains shown)
VH: EVKLVESGGGLVQPGNSLRLSCATSGFTFIDYYMSWVRQSPGKALEWLGFIRNKANGYTTEYSASVKGRFTISRDNSQSILYLQMDTLRAEDSATYYCTRDRPAWFVYWGQGTLVTVSA
VL: DIVMSQSPSSLAVSVGEKVTMSCKSSQSLLYSSNQKNYLAWYQQKPGQSPKLLIYWASTRESGVPDRFTGSGSGTDFTLTFSSVRAEDLAVYYCQQYYSYPYTFGGGTKLEIK
modifications: Bcl-xL inhibitor synthon CZ conjugated to cysteines of the TCEP-reduced antibody (Method A); positions not given; Bcl-xL inhibitor synthon CZ conjugated to cysteines of the TCEP-reduced antibody (Method A); average DAR 4.1 by MS; positions not given
ADC potency, IC50 (nM), EBC (NSCLC), growth inhibition (CellTiter-Glo): 7.15 nM | ADC potency, IC50 (nM), H2170 (NSCLC), growth inhibition (CellTiter-Glo): 0.15 nM | ADC potency, IC50 (nM), MOLT4 (leukemia), growth inhibition (CellTiter-Glo): 0.034 nM
